Broadly, the Km is the concentration of substrate that gives half-maximal velocity.

The text below walks through data of US6376210B1, “Methods and compositions for assaying analytes” (General Atomics, priority 1999, dated 2002).

The series deals with human SAH hydrolase. The series can be described thus: SAH hydrolase activity assay, hydrolytic direction (kinetic constants for SAH). As to conditions: substrate SAH; wild type vs mutant SAH hydrolase. It counts as biochemical. How it is done:
The cell-free extracts from colonies that inducibly overexpressed mutant SAH hydrolase proteins were chromatographed on a monoQ column (HR5/5) equipped with FPLC system. Proteins were eluted with a linear gradient of NaCl from 0 to 1 M in 10 mM sodium phosphate buffer, pH 7.0 over 35 min. The major protein peak that eluted at the same or close retention time as that of the wild type SAH hydrolase was collected. An aliquot collected mutant SAH hydrolase (1-10 μg) was incubated with [^3H]SAH (10 mCi/mmole, 200 μM) and 30 μM of 5, 5′-dithiobis (2-nitrobenzoic acid) (DTNB) at room temperature for 5-30 min.
The reaction solution was filtered through a membrane of molecular weight cut-off at 30,000 by centrifugation. The filtrate was measured at 412 nm for Hcy formation (enzyme activity) and the [^3H] radioactivity on the membrane was measured by scintillation counting after membrane washing with 1 ml of 50 mM phosphate buffer, pH 7.0.
The mutant hydrolases that show high radioactivity on the membrane and low O.D. at 412 nm of the filtrate relative to the wild type enzyme were selected as candidates for further characterization including determination of Km or Kd and binding energy (ΔG).
The assay of SAH hydrolase activity in the hydrolytic direction was performed as described in Yuan et al., J. Biol Chem., 271:28008-28016, 1996). The assay measures the hydrolysis of SAH into Ado and Hcy. The reaction product Hcy was derivatized by thiol specific reagent DTNB for colometric determination at 412 nm. The assay for SAH hydrolase in the synthetic direction was measured by the formation of SAH from substrate Ado and Hcy using HPLC (see, Yuan et al., J. Biol. Chem., 268:17030-17037 (1993). One unit of the enzyme activity was defined as the amount of enzyme that can hydrolyze or synthesize 1 μmole of SAH/min/mg.

B1: wild type: wild type human placental SAH hydrolase (SEQ ID No. 1), recombinant from E. coli (protein, listed as Homo sapiens)
chain: MSDKLPYKVADIGLAAWGRKALDIAENEMPGLMRMRERYSASKPLKGARIAGCLHMTVETAVLIETLVTLGAEVQWSSCNIFSTQNHAAAAIAKAGIPVYAWKGETDEEYLWCIEQTLYFKDGPLNMILDDGGDLTNLIHTKYPQLLPGIRGISEETTTGVHNLYKMMANGILKVPAINVNDSVTKSKFDNLYGCRESLIDGIKRATDVMIAGKVAVVAGYGDVGKGCAQALRGFGARVIITEIDPINALQAAMEGYEVTTMDEACQEGNIFVTTTGCIDIILGRHFEQMKDDAIVCNIGHFDVEIDVKWLNENAVEKVNIKPQVDRYRLKNGRRIILLAEGRLVNLGCAMGHPSFVMSNSFTNQVMAQIELWTHPDKYPVGVHFLPKKLDEAVAEAHLGKLNVKLTKLTEKQAQYLGMSCDGPFKPDHYRY
modifications: Human S-adenosylhomocysteine hydrolase protein sequence
Regarding B1, the “Kcat (SAH)” value was determined as 3.8 S^−1 and the Michaelis constant (Km) came out at 7.9 µM.

B2: F302S: mutant human SAH hydrolase, Phe302 to Ser; substrate trapping enzyme (protein, UniProt P23526 2-432, looked up, variant F302S)
Adenosylhomocysteinase: SDKLPYKVADIGLAAWGRKALDIAENEMPGLMRMRERYSASKPLKGARIAGCLHMTVETAVLIETLVTLGAEVQWSSCNIFSTQDHAAAAIAKAGIPVYAWKGETDEEYLWCIEQTLYFKDGPLNMILDDGGDLTNLIHTKYPQLLPGIRGISEETTTGVHNLYKMMANGILKVPAINVNDSVTKSKFDNLYGCRESLIDGIKRATDVMIAGKVAVVAGYGDVGKGCAQALRGFGARVIITEIDPINALQAAMEGYEVTTMDEACQEGNIFVTTTGCIDIILGRHFEQMKDDAIVCNIGHSDVEIDVKWLNENAVEKVNIKPQVDRYRLKNGRRIILLAEGRLVNLGCAMGHPSFVMSNSFTNQVMAQIELWTHPDKYPVGVHFLPKKLDEAVAEAHLGKLNVKLTKLTEKQAQYLGMSCDGPFKPDHYRY
B2: the “Kcat (SAH)” value is 0.1 S^−1 and the Michaelis-Menten constant (Km) was 1 µM.
